From US20040248765

Test system: Example (8): 1-[3-(D-Alanyl-L-alanyl-L-alanyl-L-leucyl-glycyl-L-leucyl-L-prolylamino)-propylamino]anthraquinone trifluoroacetate

human recombinant MMP-9, sequence (chain, as listed by the source): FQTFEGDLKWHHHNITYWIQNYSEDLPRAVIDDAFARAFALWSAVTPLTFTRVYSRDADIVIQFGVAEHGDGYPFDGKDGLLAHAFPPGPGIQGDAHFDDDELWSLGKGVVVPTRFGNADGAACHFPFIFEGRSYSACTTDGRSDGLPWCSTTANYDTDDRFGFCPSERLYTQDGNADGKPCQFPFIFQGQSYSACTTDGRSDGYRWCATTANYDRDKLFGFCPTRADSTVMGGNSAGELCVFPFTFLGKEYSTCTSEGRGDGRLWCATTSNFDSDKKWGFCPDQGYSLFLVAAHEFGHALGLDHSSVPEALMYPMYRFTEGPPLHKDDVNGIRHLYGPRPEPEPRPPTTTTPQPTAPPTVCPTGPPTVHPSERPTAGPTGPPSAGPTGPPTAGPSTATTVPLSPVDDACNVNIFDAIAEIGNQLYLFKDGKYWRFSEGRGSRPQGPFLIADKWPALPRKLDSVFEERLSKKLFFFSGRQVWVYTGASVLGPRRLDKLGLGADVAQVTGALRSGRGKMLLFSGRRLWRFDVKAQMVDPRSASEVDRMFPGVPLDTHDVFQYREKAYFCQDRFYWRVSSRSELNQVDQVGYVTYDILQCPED

human recombinant MMP-9
cleavage of the peptide conjugate by the enzyme, followed by HPLC and MS/MS: cleavage to anthraquinonyl, spacer-linked tripeptide Example 4
